The source of these data is patent US20200199241A1 (Chugai, published 2020).

The labels stand for the following.
B1: IgG1-F1125 (antibody)
heavy: QVQLQESGPGLVKPSETLSLTCAVSGHSISHDHAWSWVRQPPGEGLEWIGFISYSGITNYNPSLQGRVTISRDNSKNTLYLQMNSLRAEDTAVYYCARSLARTTAMDYWGEGTLVTVSSASTKGPSVFPLAPSSKSTSGGTAALGCLVKDYFPEPVTVSWNSGALTSGVHTFPAVLQSSGLYSLSSVVTVPSSSLGTQTYICNVNHKPSNTKVDKKVEPKSCDKTHTCPPCPAPELLGGPSVFLFPPKPKDTLYISRTPEVTCVVVDVSHEDPEVKFNWYVDGVEVHNAKTKPREEQYNSTYRVVSVLQVLHQDWLNGKEYKCKVSNKALPAPIEKTISKAKGQPREPQVYTLPPSRDELTKNQVSLTCLVKGFYPSDIAVEWESNGQPENNYKTTPPVLDSDGSFFLYSKLTVDKSRWQQGNVFSCSVMHEALHYHVTQKSLSLSP
light: not shown
notes: EU numbering; copies: 2 + 2
B2: IgG1-F1127 (antibody)
heavy: QVQLQESGPGLVKPSETLSLTCAVSGHSISHDHAWSWVRQPPGEGLEWIGFISYSGITNYNPSLQGRVTISRDNSKNTLYLQMNSLRAEDTAVYYCARSLARTTAMDYWGEGTLVTVSSASTKGPSVFPLAPSSKSTSGGTAALGCLVKDYFPEPVTVSWNSGALTSGVHTFPAVLQSSGLYSLSSVVTVPSSSLGTQTYICNVNHKPSNTKVDKKVEPKSCDKTHTCPPCPAPELLGGPSVFLFPPKPKDTLYISRTPEVTCVVVDVSHEDPEVKFNWYVDGVEVHNAKTKPREEQYNSTYRVVSVLTVLHADWLNGKEYKCKVSNKALPAPIEKTISKAKGQPREPQVYTLPPSRDELTKNQVSLTCLVKGFYPSDIAVEWESNGQPENNYKTTPPVLDSDGSFFLYSKLTVDKSRWQQGNVFSCSVMHEALHYHVTQKSLSLSP
light: not shown
notes: EU numbering; copies: 2 + 2
B3: IgG1-F1128 (antibody)
heavy: QVQLQESGPGLVKPSETLSLTCAVSGHSISHDHAWSWVRQPPGEGLEWIGFISYSGITNYNPSLQGRVTISRDNSKNTLYLQMNSLRAEDTAVYYCARSLARTTAMDYWGEGTLVTVSSASTKGPSVFPLAPSSKSTSGGTAALGCLVKDYFPEPVTVSWNSGALTSGVHTFPAVLQSSGLYSLSSVVTVPSSSLGTQTYICNVNHKPSNTKVDKKVEPKSCDKTHTCPPCPAPELLGGPSVFLFPPKPKDTLYISRTPEVTCVVVDVSHEDPEVKFNWYVDGVEVHNAKTKPREEQYNSTYRVVSVLTVLHHDWLNGKEYKCKVSNKALPAPIEKTISKAKGQPREPQVYTLPPSRDELTKNQVSLTCLVKGFYPSDIAVEWESNGQPENNYKTTPPVLDSDGSFFLYSKLTVDKSRWQQGNVFSCSVMHEALHYHVTQKSLSLSP
light: not shown
notes: EU numbering; copies: 2 + 2
B4: IgG1-F1131 (antibody)
heavy: QVQLQESGPGLVKPSETLSLTCAVSGHSISHDHAWSWVRQPPGEGLEWIGFISYSGITNYNPSLQGRVTISRDNSKNTLYLQMNSLRAEDTAVYYCARSLARTTAMDYWGEGTLVTVSSASTKGPSVFPLAPSSKSTSGGTAALGCLVKDYFPEPVTVSWNSGALTSGVHTFPAVLQSSGLYSLSSVVTVPSSSLGTQTYICNVNHKPSNTKVDKKVEPKSCDKTHTCPPCPAPELRGGPKVFLFPPKPKDTLYISRTPEVTCVVVDVSHEDPEVKFNWYVDGVEVHNAKTKPREEQYNSTYRVVSVLTVLHQDWLNGKEYKCKVSNKALPAPIEKTISKAKGQPREPQVYTLPPSRDELTKNQVSLTCLVKGFYPSDIAVEWESNGQPENNYKTTPPVLDSDGSFFLYSKLTVDKSRWQQGNEFSCSVMHEALHYHVTQKSLSLSP
light: not shown
notes: EU numbering; copies: 2 + 2
B5: IgG1-F1133 (antibody)
heavy: QVQLQESGPGLVKPSETLSLTCAVSGHSISHDHAWSWVRQPPGEGLEWIGFISYSGITNYNPSLQGRVTISRDNSKNTLYLQMNSLRAEDTAVYYCARSLARTTAMDYWGEGTLVTVSSASTKGPSVFPLAPSSKSTSGGTAALGCLVKDYFPEPVTVSWNSGALTSGVHTFPAVLQSSGLYSLSSVVTVPSSSLGTQTYICNVNHKPSNTKVDKKVEPKSCDKTHTCPPCPAPELRGGPKVFLFPPKPKDTLYISRTPEVTCVVVDVSHEDPEVKFNWYVDGVEVHNAKTKPREEQYNSTYRVVSVLTVLHQDWLNGKEYKCKVSNKALPAPIEKTISKAKGQPREPQVYTLPPSRDELTKNQVSLTCLVKGFYPSDIAVEWESNGQPENNYKTTPPVLDSDGSFFLYSKLTVDKSRWQQGNVFRCSVMHEALHYHVTQKSLSLSP
light: not shown
notes: EU numbering; copies: 2 + 2
B6: IgG1-F1126 (antibody)
heavy: QVQLQESGPGLVKPSETLSLTCAVSGHSISHDHAWSWVRQPPGEGLEWIGFISYSGITNYNPSLQGRVTISRDNSKNTLYLQMNSLRAEDTAVYYCARSLARTTAMDYWGEGTLVTVSSASTKGPSVFPLAPSSKSTSGGTAALGCLVKDYFPEPVTVSWNSGALTSGVHTFPAVLQSSGLYSLSSVVTVPSSSLGTQTYICNVNHKPSNTKVDKKVEPKSCDKTHTCPPCPAPELLGGPSVFLFPPKPKDTLYISRTPEVTCVVVDVSHEDPEVKFNWYVDGVEVHNAKTKPREEQYNSTYRVVSVLAVLHQDWLNGKEYKCKVSNKALPAPIEKTISKAKGQPREPQVYTLPPSRDELTKNQVSLTCLVKGFYPSDIAVEWESNGQPENNYKTTPPVLDSDGSFFLYSKLTVDKSRWQQGNVFSCSVMHEALHYHVTQKSLSLSP
light: not shown
notes: EU numbering; copies: 2 + 2
B7: IgG1-F1132 (antibody)
heavy: QVQLQESGPGLVKPSETLSLTCAVSGHSISHDHAWSWVRQPPGEGLEWIGFISYSGITNYNPSLQGRVTISRDNSKNTLYLQMNSLRAEDTAVYYCARSLARTTAMDYWGEGTLVTVSSASTKGPSVFPLAPSSKSTSGGTAALGCLVKDYFPEPVTVSWNSGALTSGVHTFPAVLQSSGLYSLSSVVTVPSSSLGTQTYICNVNHKPSNTKVDKKVEPKSCDKTHTCPPCPAPELRGGPKVFLFPPKPKDTLYISRTPEVTCVVVDVSHEDPEVKFNWYVDGVEVHNAKTKPREEQYNSTYRVVSVLTVLHQDWLNGKEYKCKVSNKALPAPIEKTISKAKGQPREPQVYTLPPSRDELTKNQVSLTCLVKGFYPSDIAVEWESNGQPENNYKTTPPVLDSDGSFFLYSKLTVDKSRWQQGNSFSCSVMHEALHYHVTQKSLSLSP
light: not shown
notes: EU numbering; copies: 2 + 2
B8: IgG1-F1129 (antibody)
heavy: QVQLQESGPGLVKPSETLSLTCAVSGHSISHDHAWSWVRQPPGEGLEWIGFISYSGITNYNPSLQGRVTISRDNSKNTLYLQMNSLRAEDTAVYYCARSLARTTAMDYWGEGTLVTVSSASTKGPSVFPLAPSSKSTSGGTAALGCLVKDYFPEPVTVSWNSGALTSGVHTFPAVLQSSGLYSLSSVVTVPSSSLGTQTYICNVNHKPSNTKVDKKVEPKSCDKTHTCPPCPAPELLGGPSVFLFPPKPKDTLYISRTPEVTCVVVDVSHEDPEVKFNWYVDGVEVHNAKTKPREEQYNSTYRVVSVLQVLHHDWLNGKEYKCKVSNKALPAPIEKTISKAKGQPREPQVYTLPPSRDELTKNQVSLTCLVKGFYPSDIAVEWESNGQPENNYKTTPPVLDSDGSFFLYSKLTVDKSRWQQGNVFSCSVMHEALHYHVTQKSLSLSP
light: not shown
notes: EU numbering; copies: 2 + 2
B9: IgG1-F1130 (antibody)
heavy: QVQLQESGPGLVKPSETLSLTCAVSGHSISHDHAWSWVRQPPGEGLEWIGFISYSGITNYNPSLQGRVTISRDNSKNTLYLQMNSLRAEDTAVYYCARSLARTTAMDYWGEGTLVTVSSASTKGPSVFPLAPSSKSTSGGTAALGCLVKDYFPEPVTVSWNSGALTSGVHTFPAVLQSSGLYSLSSVVTVPSSSLGTQTYICNVNHKPSNTKVDKKVEPKSCDKTHTCPPCPAPELLGGPSVFLFPPKPKDTLYISRTPEVTCVVVDVSHEDPEVKFNWYVDGVEVHNAKTKPREEQYNSTYRVVSVLAVLHADWLNGKEYKCKVSNKALPAPIEKTISKAKGQPREPQVYTLPPSRDELTKNQVSLTCLVKGFYPSDIAVEWESNGQPENNYKTTPPVLDSDGSFFLYSKLTVDKSRWQQGNVFSCSVMHEALHYHVTQKSLSLSP
light: not shown
notes: EU numbering; copies: 2 + 2

In this experiment the target is T1, soluble human FcRn complexed with β2-microglobulin (human, UniProt P61769 21-119, limits assumed).
T1 construct: also called hFcRn
T1 sequence (chain, as listed by the source limits assumed, chain 1 of 2): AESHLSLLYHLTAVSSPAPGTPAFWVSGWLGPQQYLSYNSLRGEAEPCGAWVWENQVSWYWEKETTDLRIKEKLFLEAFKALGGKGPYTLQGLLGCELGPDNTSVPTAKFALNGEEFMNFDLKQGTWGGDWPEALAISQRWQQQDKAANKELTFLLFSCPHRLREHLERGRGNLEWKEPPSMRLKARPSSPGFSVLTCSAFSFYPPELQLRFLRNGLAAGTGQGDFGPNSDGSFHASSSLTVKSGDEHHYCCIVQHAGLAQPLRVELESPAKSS
T1 sequence (P61769 21-119 limits assumed, chain 2 of 2): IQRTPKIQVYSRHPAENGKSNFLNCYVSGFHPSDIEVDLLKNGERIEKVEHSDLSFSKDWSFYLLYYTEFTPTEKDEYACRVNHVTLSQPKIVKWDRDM
Description: Biacore SPR, pH 7.0.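 Further: test antibodies captured on a Protein L chip with human FcRn flowed over as analyte, KD obtained as the ratio of dissociation to association rate constants.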
As to B1, binding was characterised by a dissociation constant (Kd) of 51.8 nM. The same measure for B2: 79.4 nM; for B3: 117 nM.

Consider B4, for which the equilibrium dissociation constant (Kd) stood at 129 nM. Take B5: the Kd was 158 nM. The result for B6 reads 89.5 nM; that for B7, 140 nM. In turn, B8 came in with a Kd of 44.8 nM.

Turning to B9, binding was characterised by a dissociation constant (Kd) of 55.4 nM.
